# Measured values published in patent US7867500B2, “Cofactor that modulates steroid receptor activities” (The United States of America as represented by the …, priority 2004, dated 2011).
# T1: glucocorticoid receptor (GR) (Rattus norvegicus, UniProt P06536)
# T1 construct: made in house; host or cells: cell-free coupled transcription/translation (Promega TNT SP6); the GST partner was made in E. coli BL21
# T1 sequence (P06536 1-795): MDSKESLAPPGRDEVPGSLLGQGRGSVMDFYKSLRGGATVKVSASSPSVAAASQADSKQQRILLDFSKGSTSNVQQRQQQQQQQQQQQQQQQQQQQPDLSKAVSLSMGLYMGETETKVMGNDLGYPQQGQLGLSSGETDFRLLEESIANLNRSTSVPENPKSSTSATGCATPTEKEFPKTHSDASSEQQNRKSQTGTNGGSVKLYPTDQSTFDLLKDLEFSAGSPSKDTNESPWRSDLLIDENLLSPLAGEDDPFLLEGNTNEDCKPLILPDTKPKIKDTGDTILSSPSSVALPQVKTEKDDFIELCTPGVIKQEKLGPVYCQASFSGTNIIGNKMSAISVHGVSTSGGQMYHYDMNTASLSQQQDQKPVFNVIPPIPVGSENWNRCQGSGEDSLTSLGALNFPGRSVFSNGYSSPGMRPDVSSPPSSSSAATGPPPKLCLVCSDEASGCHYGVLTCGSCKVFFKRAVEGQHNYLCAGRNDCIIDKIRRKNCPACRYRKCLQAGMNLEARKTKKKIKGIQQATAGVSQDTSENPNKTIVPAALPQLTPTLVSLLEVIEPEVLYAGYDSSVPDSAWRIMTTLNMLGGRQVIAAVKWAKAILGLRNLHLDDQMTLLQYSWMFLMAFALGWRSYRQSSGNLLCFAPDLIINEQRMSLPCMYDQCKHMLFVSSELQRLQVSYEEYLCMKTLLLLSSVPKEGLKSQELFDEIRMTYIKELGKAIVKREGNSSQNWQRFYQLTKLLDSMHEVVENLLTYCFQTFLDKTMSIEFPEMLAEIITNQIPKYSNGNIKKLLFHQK
# T1 sequence (Q6EMB2 960-1281 F1267S partner limits assumed): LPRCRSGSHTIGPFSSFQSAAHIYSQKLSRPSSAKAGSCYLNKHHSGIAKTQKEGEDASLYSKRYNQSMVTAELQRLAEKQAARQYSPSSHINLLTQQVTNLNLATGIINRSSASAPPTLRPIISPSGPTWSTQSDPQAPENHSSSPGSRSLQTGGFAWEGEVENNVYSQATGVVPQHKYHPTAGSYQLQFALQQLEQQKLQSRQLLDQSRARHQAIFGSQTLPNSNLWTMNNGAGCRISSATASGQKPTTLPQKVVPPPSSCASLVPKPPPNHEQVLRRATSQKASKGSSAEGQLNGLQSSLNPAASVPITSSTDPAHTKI
# T2: TIF2.4 (Homo sapiens, UniProt Q15596)
# T2 sequence (Q15596 624-1010 limits assumed): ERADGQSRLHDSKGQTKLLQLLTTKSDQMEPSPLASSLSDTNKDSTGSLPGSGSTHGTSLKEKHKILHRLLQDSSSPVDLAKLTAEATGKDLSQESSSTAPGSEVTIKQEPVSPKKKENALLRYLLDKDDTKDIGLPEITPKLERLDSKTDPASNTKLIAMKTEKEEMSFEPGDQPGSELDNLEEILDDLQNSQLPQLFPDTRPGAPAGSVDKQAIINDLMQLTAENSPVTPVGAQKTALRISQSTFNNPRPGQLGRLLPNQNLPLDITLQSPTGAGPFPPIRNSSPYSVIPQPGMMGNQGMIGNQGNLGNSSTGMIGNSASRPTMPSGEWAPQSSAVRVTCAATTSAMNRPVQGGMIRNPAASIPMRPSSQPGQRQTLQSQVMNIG
# How the values were obtained:
# STAMP = biological target: T3, STAMP (Homo sapiens, UniProt Q6EMB2); test: siRNA assay: fold repression by GR of AP-1/Luc reporter in U2OS.rGR cells; format: cell-based; settings: 500 ng siRNA, without HA/STAMP plasmid
# T3 construct: Indirect immunofluorescence, using HA-tagged full-length STAMP; expressed in transfected cells; host or cells: U2OS.rGR
# Procedure: U2OS.rGR cells were transiently transfected with (FIG. 5E) or without (FIG. 5F) HA/STAMP plasmid (100 ng) and ±500 ng of STAMP siRNA, or β-actin siRNA, plus AP-1/Luc reporter (20 ng) and the Renilla control (10 ng) plasmid. The cells were processed and the fold repression with each treatment was calculated as described in FIG. 5A. The average values were then plotted (±S.E.M., n=4-5 (FIG. 5D) and 7 (FIG. 5E); *, P≦0.032; **, P=0.0022).
# Four different siRNA oligonucleotides for STAMP were designed and synthesized by Qiagen:
# A control β-actin siRNA was also purchased from Qiagen. U2OS.rGR cells were seeded at 50,000 cells per well in 24 wells plate the day before transfection. DNA (STAMP plasmid and AP-1/Luc reporter; total=150 ng) together with 500 ng siRNA were mixed with 1.6 μl Lipofectamine 2000 (Invitrogen), allowed to stand at room temperature for 15 min, and then added to FBS-free DMEM pre-washed cells. Four hours later, the cells were re-fed with DMEM/10% FBS (containing G418), allowed to recover for 2 h, and re-fed with DMEM/10% FBS (containing G418) containing appropriate hormone dilutions±PMA. The cells were harvested and Luciferase activity was determined as described above in the standard transient transfection studies.
# [1] = biological target: T1, glucocorticoid receptor (GR); test: Cell-free pulldown of [35S]-labeled GR by GST/STAMP segment; format: binding; settings: with and without steroid
# Source text: (§1) FIGS. 7A and 7B illustrate the domains of STAMP that bind to TIF2.4 (FIG. 7A) and GR (FIG. 7B) in cell-free pulldown assays. Bacterially expressed GST-chimeras (GST/TIF2.4 in FIG. 7A and GST/STAMP segments in FIG. 7B) were immobilized on glutathione-Sepharose beads. The [^35S]methionine labeled STAMP fragments (FIG. 7A) or wild type GR (FIG. 7B) that were retained on the matrix by binding to the GST chimeras were separated on SDS PAGE gels and visualized by autoradiography. Specific binding was seen as when the GST/TIF2.4 or GST/STAMP bands were darker than the GST control bands. […] Similar results were obtained in a second experiment.
# (§2) Template DNA plasmids (1 μg), 40 μl of Promega TNT (SP6) quick coupled transcription/translation system master mixture, and 2 μl of [^35S]methionine (Amersham Biosciences) were brought up to a total volume of 50 μl with H2O and incubated at 30° C. for 90 min according to the manufacturer's (Promega) recommendations. If hormone stimulation is needed, hormones (Dex, etc) were added into the transcription-translation reaction during the 30° C. incubation to both increase the stability of the synthesized GR and to cause activation of the GR-steroid complexes.
# These assays were conducted generally as described (He et al., 2002). […] The proteins were separated on 8-10% SDS-PAGE gels and detected by radio-autoradiography.
# TIF2.4 [2] = biological target: T2, TIF2.4; test: Mammalian two-hybrid assay in CV-1 cells (pFRLuc reporter) with TIF2.4; format: cell-based; parameters: expressed in transfected cells; host or cells: CV-1
# Source text: FIG. 2A-2C illustrate the isolation and characterization of the partial clone of the protein that binds to TIF2.4. […] Five clones were obtained but only two (clones I and V) contained a protein that was needed for colony growth in the presence of the pSos/TIF2.4 fusion protein. After initial screening, only clone I (also named 6-6CL1) was selected for further investigation. FIG. 2B and FIG. 2C illustrate the selectivity of 6-6CL1 interactions with TIF2.4 in mammalian two-hybrid assays. Triplicate samples of CV-1 cells in 24-well plates were transiently transfected with the indicated GAL-DBD and VP16-AD plasmids along with the GAL4-regulated reporter, pFRLuc. The relative luciferase activity, normalized for the activity of the internal Renilla control, was determined and plotted as the average±S.D. The much lower activity of GAL/TIF2.4m123 was previously shown not to be due to unequal levels of protein expression (He et al., 2002). Similar results were obtained in three additional experiments. FIG. 2D and FIG. 2E provide a comparison of binding to 6-6CL1 by similarly positioned domains of SRC-1 and TIF2. Triplicate samples of CV-1 cells in 24-well plates were analyzed as in (B&C) after being transiently transfected with GAL±6-6CL1 constructs and pFRLuc reporter along with VP16 chimeras of SRC-1 (FIG. 2D) or TIF2 (FIG. 2E) segments. Similar results for SRC-1 were obtained in two additional experiments (ND=not determined). Western blots (FIG. 2F) indicate that the low activity of TIF2(1140C) (see FIG. 1) is not due to inadequate protein expression.
# FIGS. 6A and 6B illustrate the domains of STAMP that interact with TIF2.4 (FIG. 6A) and GR (FIG. 6B) in the mammalian two-hybrid assay. […] These CV-1 cells were also transfected with GAL fused to the indicated segments of STAMP along with the FRLuc reporter and Renilla control plasmids. After determining the relative luciferase activities as described in FIG. 2B and 2C, the average values±S.E.M. from 2-5 experiments were plotted. The average fold increase for VP16/TIF2.4 with GAL/STAMP(623-834) in FIG. 6A was 11.0±3.0 (SEM, n=5) above the VP16 control. The values in parentheses above the data bars in FIG. 6B indicate the fold increased interaction ±1 μM Dex.
# These assays were conducted as described (He et al., 2002). In particular, the recommended procedure for the Mammalian Matchmaker two-hybrid assay kit (Clontech) was modified slightly by changing from a chloramphenicol acetyltransferase reporter to a Luciferase Reporter pFRLuc (Stratagene), which is under the control of five repeats of the upstream activating sequence for the binding of GAL4.
# TIF2.4 [3] = biological target: T2, TIF2.4; test: Cell-free pulldown of [35S]-labeled STAMP constructs by GST/TIF2.4; format: binding; settings: compared with GST itself
# Source text: as §1, §2
# These assays were conducted generally as described (He et al., 2002). Sonicated bacterial lysates (1 ml) containing overexpressed GST, GST/TIF2.4, or GST/STAMP-956C were incubated with 160 μl of glutathione-Sepharose 4B beads for 1 hr at 0° C. The mixture was centrifuged (12,000×g), the supernatant was discarded, and the pellet was washed with phosphate-buffered saline (3×1 ml). Each 20-μl sample of immobilized GST or GST-chimera was then incubated overnight with 10 μl of ^35S-labeled in vitro translation product. The matrix was washed with phosphate-buffered saline (4×1 ml). The immobilized proteins were removed from the beads by heating at 90° C. for 5 min in 20 μl of 2×SDS loading buffer. The proteins were separated on 8-10% SDS-PAGE gels and detected by radio-autoradiography.
# T3 sequence (Q6EMB2 5-1281 A149V/F1267S limits assumed): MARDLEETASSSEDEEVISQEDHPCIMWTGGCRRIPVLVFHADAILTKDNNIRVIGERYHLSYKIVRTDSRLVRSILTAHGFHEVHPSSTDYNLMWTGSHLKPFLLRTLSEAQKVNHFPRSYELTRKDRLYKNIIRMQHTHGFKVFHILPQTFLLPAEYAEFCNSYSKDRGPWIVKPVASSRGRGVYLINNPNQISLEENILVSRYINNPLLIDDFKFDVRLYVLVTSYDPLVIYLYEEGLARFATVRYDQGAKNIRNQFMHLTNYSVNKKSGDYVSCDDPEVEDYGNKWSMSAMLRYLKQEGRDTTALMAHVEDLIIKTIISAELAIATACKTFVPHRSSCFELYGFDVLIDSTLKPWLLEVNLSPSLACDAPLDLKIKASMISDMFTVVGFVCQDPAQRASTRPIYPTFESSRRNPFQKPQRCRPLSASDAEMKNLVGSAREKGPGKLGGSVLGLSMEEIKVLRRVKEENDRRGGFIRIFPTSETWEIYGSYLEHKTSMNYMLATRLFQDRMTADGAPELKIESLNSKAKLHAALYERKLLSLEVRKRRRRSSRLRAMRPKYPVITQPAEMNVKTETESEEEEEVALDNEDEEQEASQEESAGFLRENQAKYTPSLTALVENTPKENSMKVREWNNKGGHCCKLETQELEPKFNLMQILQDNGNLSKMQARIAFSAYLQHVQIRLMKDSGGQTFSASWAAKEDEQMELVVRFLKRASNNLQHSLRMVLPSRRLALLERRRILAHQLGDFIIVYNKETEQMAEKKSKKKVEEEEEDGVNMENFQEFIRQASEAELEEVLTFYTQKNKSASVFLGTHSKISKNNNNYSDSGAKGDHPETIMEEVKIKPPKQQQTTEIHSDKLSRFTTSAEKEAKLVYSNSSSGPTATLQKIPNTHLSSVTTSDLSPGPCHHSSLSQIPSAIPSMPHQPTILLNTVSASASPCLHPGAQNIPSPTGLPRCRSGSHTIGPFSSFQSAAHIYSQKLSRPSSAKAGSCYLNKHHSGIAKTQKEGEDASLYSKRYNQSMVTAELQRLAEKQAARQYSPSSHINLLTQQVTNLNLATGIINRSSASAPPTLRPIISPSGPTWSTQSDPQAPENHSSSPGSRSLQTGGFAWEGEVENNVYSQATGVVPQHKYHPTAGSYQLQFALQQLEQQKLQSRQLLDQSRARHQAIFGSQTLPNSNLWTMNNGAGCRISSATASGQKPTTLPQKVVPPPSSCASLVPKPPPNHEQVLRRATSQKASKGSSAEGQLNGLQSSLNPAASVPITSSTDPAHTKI
molecule,measurement,setting,value
"CAGCACTGACTATAACCTAAT (chemistry not given here) [STAMP siRNA #3, siRNA oligonucleotide for STAMP synthesized by Qiagen]",repressive activity of GR-agonist complexes (endogenous STAMP),STAMP,can reduce the repressive activity of GR-agonist complexes
"GAGGGCAATGAGGCCAAAATA (chemistry not given here) [STAMP siRNA #4, siRNA oligonucleotide for STAMP synthesized by Qiagen]",repressive activity of GR-agonist complexes (endogenous STAMP),STAMP,can reduce the repressive activity of GR-agonist complexes
"GST/STAMP(956C): GST chimera of STAMP fragment amino acids 956 to 1277 (protein, GST fusion) LPRCRSGSHTIGPFSSFQSAAHIYSQKLSRPSSAKAGSCYLNKHHSGIAKTQKEGEDASLYSKRYNQSMVTAELQRLAEKQAARQYSPSSHINLLTQQVTNLNLATGIINRSSASAPPTLRPIISPSGPTWSTQSDPQAPENHSSSPGSRSLQTGGFAWEGEVENNVYSQATGVVPQHKYHPTAGSYQLQFALQQLEQQKLQSRQLLDQSRARHQAIFGSQTLPNSNLWTMNNGAGCRISSATASGQKPTTLPQKVVPPPSSCASLVPKPPPNHEQVLRRATSQKASKGSSAEGQLNGLQSSLNPAASVPITSSTDPAHTKI",binding of full length GR,[1],this binding is steroid-independent
"N623: STAMP fragment amino acids 1-623, TTL domain but not the CID region (protein, GAL4 DBD fusion, STAMP fragment amino acids 1-623, TTL domain but not the CID region) MARDLEETASSSEDEEVISQEDHPCIMWTGGCRRIPVLVFHADAILTKDNNIRVIGERYHLSYKIVRTDSRLVRSILTAHGFHEVHPSSTDYNLMWTGSHLKPFLLRTLSEAQKVNHFPRSYELTRKDRLYKNIIRMQHTHGFKVFHILPQTFLLPAEYAEFCNSYSKDRGPWIVKPVASSRGRGVYLINNPNQISLEENILVSRYINNPLLIDDFKFDVRLYVLVTSYDPLVIYLYEEGLARFATVRYDQGAKNIRNQFMHLTNYSVNKKSGDYVSCDDPEVEDYGNKWSMSAMLRYLKQEGRDTTALMAHVEDLIIKTIISAELAIATACKTFVPHRSSCFELYGFDVLIDSTLKPWLLEVNLSPSLACDAPLDLKIKASMISDMFTVVGFVCQDPAQRASTRPIYPTFESSRRNPFQKPQRCRPLSASDAEMKNLVGSAREKGPGKLGGSVLGLSMEEIKVLRRVKEENDRRGGFIRIFPTSETWEIYGSYLEHKTSMNYMLATRLFQDRMTADGAPELKIESLNSKAKLHAALYERKLLSLEVRKRRRRSSRLRAMRPKYPVITQPAEMNVKTETESEEEEEVALDNEDEEQEASQEESAGFLRENQAKYTPSLTALVE",interaction with TIF2.4,TIF2.4 [2],weak response
same,binding to GST/TIF2.4,TIF2.4 [3],neither the amino terminal (N623) nor the C-terminal (834C) fragments exhibit significantly more binding to GST/TIF2.4 than to GST itself
